Test results as given in the nanobody polyreactivity screen of Harvey et al. (2022).

Assay: yeast display, Sf9 membrane polyspecificity reagent, FACS + sequencing; frameworks hold sequencing errors
How it was run: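 Nanobodies from a synthetic yeast display library (Saccharomyces cerevisiae BJ5465), induced 36–48 hours with galactose, were stained 1 hour at 4 °C with 10% biotinylated, detergent-solubilized Sf9 membrane reagent, enriched on streptavidin microbeads, then FACS-sorted. Anti-HA (expression) and streptavidin (reagent binding) fluorescence set low and high (top ~1%) gates. Polyreactivity labels come from the gate of origin. Genes were colony-PCR amplified, MiSeq 2 × 250 sequenced and filtered by CDR length.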

Sequence	polyreactivity (PSR sort gate)
QVQLVESGGGLVQAGGSLRLSCAASGRTFLTNAMGWYRQAPGKERELVAAISSGASTNYADSVKGRFTISRDNAKNTVYLQMNSLKPEDTAVYYCAAQLTDYQSKTLSYDYWGQGTQVTVSS	low polyreactivity
QVQLVESGGGLVQAGGSLRLSCAASGSNFLHNAMGWYRQAPGKERELDAAISGTGGRTYYADSVKGRFTISRDTANNTVYLQMNGLKPEDTAVYYWAARGSHVSIPRYNYWGQGTQVTVSS	high polyreactivity
QVQLVESGGGLVQAGGSLRLSSAASGRTFPSYAMGWYRQAPGKERELVAAISSSGGSTYYADSVKGRFTISRDNAKNTFYLQMNSLKPEDTAVYYCNKQFPYAKYYIMGYWGQGTQVTVSS	high polyreactivity
QVQLVESGGGLVQAGGSLRLSCAASGFTFIRYAMGWYRQAPGKEREFVAAISWRVGITYYADSVKGRFTMSRDNAKNTVYLQMNSLKPEDTAVYYCARDYRNPPFAYEYWGQGTQVTVSS	low polyreactivity
QFQLVESGVGLVQAGARLRLSSAASGFTIKYYAMGWYRQAPGKERELVATITRGGSTNYADSVKGRFTISRDNAKNTVYLQMNSLNPEDTAVYYCAKGYPYYYYDYDSWGQGTQVTVSS	high polyreactivity
QVQLVESGGGLVQAGGSLRKSCAASGIIFAYYALGCSRQAPGKERELGAAISSDGSTNYADSVKGRFTISRDNAKNSVYLQMNILKPVDTAVYYCAAKAYLYHWFEMYYWGQGTQVTVSS	high polyreactivity
QVQLVESGGGLVQAGGSLRLSCAASGIIFYSYTMGWYRQAPGKERELVAAISRNGGGTYYADSEKGRFTISRDNAKNTVYLQMNSLNPEETAVYYCAAEVDQWYYRGYDYWGQGTQVTVSS	high polyreactivity
QVQLVESGGGLVQAGGSLRLSCAASGRIFQYYAMGWYRQAPGKERELVAAISSSGGSTYYADSVKGRFTISRDNAKNTVYLQMNSLKPEDTAVYYCNADRNARQNRRDYWGQGTQVTVSS	high polyreactivity
QVQLVESGGGLVQAGGSLRLSCAASGFTFAYNAMGWYRQAPGKEREFVAAITSSGGSTYYADSVKGRFTISRDYAKNTVYLQMNSLKPEHTAVYYCNAYYTFPRYQYGYWGQGTQVTVSS	high polyreactivity
QVQLVESGGGLVQAGGSLRLSCAASGRIFYWNAMGWYRQAPGKEREFVAAISWSGGSTYADSVKGRFTISRDNAKNTVYLQMNSLKPEDTAVYYCATRVSRSFRAYDYWGQGTQVTVSS	high polyreactivity
QVQHVESGGGLVQAGGSLRLSCAASGITFGRNTKGWYRQAPGKERELVAAIDSGGNTYADSVKGRFTISRDNAKNTVYLQMNSLKPEDTAVYYCAVDGGEFSSYGYWGQGTQVTVSS	low polyreactivity
QFPLVESAGGLGQAGGTLRLTWAASGLSFGANTLGWYRHAPGKERELVAALTISGGITHYADSVKGRFTISRDNANNTVYVQIKSLQPEDTAVYYCAAGAYWRLYPYRQRNGGRMYYWGQGTQVTVSS	low polyreactivity
QLQLVESGGGLLQAGGSLRLSCAASGSTFVSNAMGWYRQAPGKERELVATITTSGGSTYYADSVKGRFRNSRDNAKTTVYLQMNSLNPEDTAVYYCNAVYLFCYSGDLDYWGQGTQVTVSS	low polyreactivity
QVQLQESGGGLVQAGGSLRLSCAASGTISQEDWMGWYRQAPGKEREFVAPIGLGSNTNSADSLKGRFTISRDNAKNTVYLHMNSLKPEDTAVYYCAVCVWQYSDHVYRGQGTQVTVSS	low polyreactivity
QVQLVESGGGLVQAGGSLRLSCAASGRIFAWYAMGWYRQAPGKEREFVAAISRGGSTYYADSVKGRFTISRDNAKNTVYLQMNSLKPEDTAVYYCAASSPSSGRFDYWGQGTQVTVSS	high polyreactivity
QVQLVESGGGLVQAGGSLRLSCAASGSIFVSYAMGWYRQAPGKERELVAVISYSGVSTYYADSVKGRFTISRDNAKNTVYLQMYSLKPEDTAVYYCATRQYGTRHILKYNYWGQGTQVTVSS	low polyreactivity
QVQLVESGGGLVQAGGSLRLSCAASGRIFQGYAKGWYRQAPGKERELVAAIRTGGSTNYADSVKGRFTISRDNAKNTVYLQMNSLKPEDTAVYYCNAVGQLYFYFPRGDYWGQGTQVTVSS	low polyreactivity
QVQLVESGGGLVQAGGSLRLSCAASGRIFRGYTMGWYRQAPGKERELVAAIRSGSRTNYADSVKGRFTISRDNAKNTVYLQMNSLKPEDTAVYYCAADSGYGRPYYYWGQGTQVTVSS	high polyreactivity
QVQLVESGGGLVHAGGILRLSCAASGRTFPYYAMGWYRQAPGKERELVAAISSSGGGTYYADSVKGRFTISRDTAKNTVYLQMNSLKPEDTAVYYCNAVSYYQDSFYYWGQGTQVTVSS	high polyreactivity
QVQLVESGGGLDQAGGSLRLICAASGSTFYIYAMGWYRQAPGKEREFVAAIDFSGSSTYADSVKGRFTISRDNAKNPVYLQMNTLKPEDTAVYYCAAYQIYQYDGPYDYWGQGTQVTVSS	low polyreactivity
QVQLVESGGGLVQAGGSLRISCADSGITYSANAMGWYRQAPGKERELVAAITGSGGGTYYADSVKGRFTISRDNAKNTVYLQMNSLKPEDTAVYYCKADNYYYSGFDYWGQGTQVTVSS	low polyreactivity
QVQLVESGGGLVQAGGSLRLSCAASGRNFSYYAMGWYRQAPGKERELVAFISSGGNTYYADSVKGRFTISRDNAKNTVYLPMNSLKPEDTAVYYSGADPNAQGYPQVNYWGQGTQVTVSS	high polyreactivity

Sequence	polyreactivity (PSR sort gate)
QVQLVESGGGLVQAGGSLRLSCAAYGSTLTRNAMGWYRQAPGKERELVATITATGGSTYYADSVKGRFTISRDNAKNTVYLQMTSLKPEDTAVYYCNKVYREYSLSYWSPTHWAYYYWGQGTQVTVSS	low polyreactivity
QVQLVESGGGLVQAGGSLRLSCASSGTFFGYAMGWYRQAPGKERELVAAITSGGSTYYADSVKGRFTISRDNAKNTVYLQMNSLKPEDTAGYYCARVYSRWSYRYDYWGQGTQVTVST	low polyreactivity
QVQLVESGGGLVQAGGSLRLSCAASGIIFSPYAMGWYRQAPGKERELVAAINFSTGRTYYADSVKGRFTISRDNAKNTVYLQMNSLKPEDTAVYYCAAGKYPYVFRGGYDYWGQGTQVTVSS	low polyreactivity
QVQLVESGGGLVQAGGSLRLSCAASGSTFDIYAMGWYRQAPGKERELVAAITSGGSTYADSVKGRFTISRDNAKNTVYLQKNSLKPVETAVYYSNADRWFGNYRHLTFLNDYWGQGTQVTVSA	low polyreactivity
QVQLVESGGGLVQAGGSLRLSCAASGYIFPEYVMGWYRQAPGKERELVAVITWDGTSTYADSVKGRFTISRDNAKNTVYLQMNSLKPEDTAVYYCAADTNYYVDTAGYGDGLDSWGQGTQVTVSS	low polyreactivity
QVQLVESGGGLVQAGGSLRLSCAASGRIFGDYAMGWYRQAPGKERELVARITWSGTGTYYADSVKGRFTISRDNAKNTVYLQMNSLKPEDTAVYYCNADWQVQWYYYWGHGTQVTVSS	low polyreactivity
QVQLVESGGGLVQAGGSLRLSCAASGFTFGSNAMGWYRPAAGKERELVASITTRGGSTYYADSVKGRFTISRDNAKNTVYLQMNSLKPEDTAVYYCAARARYPNWTYYYWGQGTQVTVSS	high polyreactivity
QVQLVESGGGLVQAGGSLRLSCAASGIIFHRNDMGWYRQAPGKERELVANIRDGGITYADSVKGRFTISRDKAKNTVYLQMNSLKPEDTAVYYCARDDTSPGYGDQSSNAAYYYWGQGTQVTVSS	low polyreactivity
QVQLVESGGGLVQAGGSLRLSCAASGRIFRYYVMGWYRQAPGKERELVASITRVGRTNYADSVKGRFTISRDNAKNTVYLQMNSLKPEDTAFYYCAADVWWSTYRVTDDYWGQGTQVTVSS	high polyreactivity
QVQIVESGGGLVQAGGSLRLSCAASGFIFPANAMGWYRQAPGKEREFVAVISYSGGRTYYADSVKGRFTISRDNAKNTVYLQMNSLKPEDTSVYYCNVVRVATWGYDYWGQGSQVTVSS	low polyreactivity
QVQLVESGGGLVQAGGSLRLSCAASGSIFWYNTMGWYRQAPGKERELVASISWDGGTYYADSVKGRFTISRDNAKNTVYLQMNSLKPEVTAVYYCNVAWYWGYDYWGQGTQVTVSS	low polyreactivity
QVQLVESGGGLVQAGGSLRLSCAASGSIFSENTMGWYRQAPGTKREWVADITSGGSTNYADSVKGRFTISRDNAKNTVYLQMNSLKPEDTAVYYCAVPGRLYAHPQGYDYWGQGTQVTVSS	low polyreactivity
QVQLVESGRGLVQAGGSLRLICDASGSTFFLYGMGWYRPAPGKERELVAAITWNGGSTYYADSVKGRFTISRDNAKNTVYLQMNSLKPEDTAVYYCAADYYGYFSTPYDYWGQGTQVTVSS	low polyreactivity
QVQLVESGGGLVQAGGSLRLSCAASGSTFRDNTMGWYRQAPGKERELVAAITKSGGSTYYADSVKGRFTISRDTAKNTVYLQMNSLKPEDTAVYYCAAGARPRDKPVYFLYRYDYWGQGTQGTVSS	low polyreactivity
QVQLVESGGGLVQAGGSLRLICAASGSIFRKNAMGWYRQAPGKERELVAAITGTGRTTYADSVMGRFTISRDNAKNTVYLQRNSLKPEDTAVYYCAADVNYYQHRLYYWGQGTQVTVSS	low polyreactivity
EVQLVESGGGLVQAGGSLRLSCAASGFTFSYNAMGWYRQAPGKERELVAAIDWGGGSTYADSVKGRFTISRDNAKNTVYLQMNSLKPEDTAVYYCAAYIPSSGRNPEIGVEYDYWGQGTQVTVSS	low polyreactivity
QVQLLESGGGLVQAGGSLRLSCAASGSIFGGNARGWSRQAPGKERELVAAITYSGGSTYYADSVKGRFTISRDNAKNTVYLQMNSLKPEDTAVYYCNADGVVTWYDYWGQGTQVTVSS	low polyreactivity
QVQLVESGGGLVQAGGSLRLSCAASGIFRSNARGWYRQAPGKERELVAGISSGGGTNYADSVKGRFTISRDNAKNTVYLQMNSLKPEDTAVYYCAKERIYFDYWYVYTDLVYEYDYWGQGSQVTVSS	low polyreactivity
QVQLEESGAGLVQARGSLRLSCAASGRTFIWNAMGWYRQAPGKERELVAAISSRGGRTYYADSVKGRFTISRDNAKNTVYLQMNILKPEDTAVYYCAAYYITFIGRGYGYWGQGTQVTVSS	high polyreactivity
QVQLVESGGGLVQAGGSHRLSCAASGSTFKNYPMGGYRQAPGQEREFVAAINVSGARTYYADSVKGRFTISRDNAKNTVYLQMNSLKPEDTAVYYCAAYYSGVGYDYWGQGTQVTVSS	high polyreactivity
QVQLVESGGGLVQAGGSLRLSCAASGIIFRWNAMGSYRQAPGKERELVAAITRSGGSTYYADSVKGRFTISRDNAKNTVYLQMNSLKPEDTAVYYCAAEYYAPRYKFDYWGQGTQVTVSS	high polyreactivity
